Measured values reported in paper PMC5377324.

Legend:
Assay in all cases: ITC
[1] = molecular target: Atx3_(22Q)-IIC (C-terminal fragment, residues 221-373, of isoform-II Atx3, 22Q)
[2] = molecular target: Atx3_(46Q)-IIC (C-terminal fragment, residues 221-373, of isoform-II Atx3, polyQ expanded to 46Q)
[3] = molecular target: Atx3_(6Q)-IIC (C-terminal fragment, residues 221-373, of isoform-II Atx3, polyQ truncated to 6Q)

Substance | Kd [1] | Kd [2] | Kd [3]
P97N (N-terminal domain of P97, residues 1-213) (from UniProt P55072 1-213) (domain or fragment) | 10 µM | 10 µM | 10 µM
K48-diUb (Lys48-linked di-ubiquitin) (from UniProt P0CG48 1-76) (complex) | 50 µM | 50 µM | 50 µM
